B1: pT1616 (human monoclonal antibody, IgG1) (antibody, V domains shown)
VH: QVQLVQSGAEVKKPGSSVKVSCKASGGTFSSYTISWVRQAPGQGLECMGRIIPILGIANYAQKFQGRVTITADKSTSIAYMEVSSLRSEDTAVYYCATEVGYSGYGSAEYFNHWGQGTPVTVSS
VL: QSVLTQPPSVSGAPGQRVTISCTGSNSNIGAGYDVHWYQQLPGTAPKLLIYANNNRPSGVPDRFSGSRSGTSASLVITGLQADDEADYYCQSYDSSLTGSLFGGGTKLTVL
notes: also called bnAb pT1616; nAb pT1616; source: HEK293ExPi, transfected, purified from the supernatant (Protein G, SEC)
B2: pT1616 IgG1 (antibody, V domains shown)
VH: B1 VH
VL: B1 VL
notes: also called bnAb pT1616; nAb pT1616; source: HEK293ExPi, transfected, purified from supernatant (Protein G, SEC)

Assays:
Conditions in all cases: both partners purified
[1] = biological target: T1, SARS-CoV-2 RBD (aa 334-527) (Severe acute respiratory syndrome …, UniProt P0DTC2); test: SPR
T1 construct: also called recombinant RBD; monomeric RBD

[2] = biological target: WIV-1 S protein ectodomain (Bat SARS-like coronavirus WIV1 …, UniProt U5WI05); test: ELISA; […], room temperature; […]
[3] = biological target: CoVZC45 S protein ectodomain (Bat SARS-like coronavirus CoVZC45 …, UniProt A0A2R3SUW7); test: ELISA; […], room temperature; […]
[4] = biological target: T2, HKU3-1 S protein ectodomain (Bat SARS coronavirus HKU3-1 (DQ022305), UniProt Q3LZX1); test: ELISA; […], room temperature; […]
T2 construct: source: Drosophila S2 cells, secreted, purified (Strep-Tactin XT, Superose 6 SEC)

[5] = biological target: T3, BM48-31 S protein ectodomain (Bat coronavirus BM48-31/BGR/2008 …); test: ELISA; […], room temperature; […]
T3 construct: also called sarbecovirus BM48-31 S protein

[6] = biological target: RaTG13 S protein ectodomain (Bat coronavirus RaTG13 (MN996532), UniProt A0ABF7PLN6); test: ELISA; […], room temperature; […]
[7] = biological target: RsSHC014 S protein ectodomain (Bat SARS-like coronavirus RsSHC014 …, UniProt U5WLK5); test: ELISA; […], room temperature; […]

Binder | Kd [1] [nM] | koff [1] [s⁻¹] | kon [1] [M⁻¹ s⁻¹] | binding result [2] | binding result [3] | binding result [4] | binding result [5] | binding result [6] | binding result [7]
B1 | 0.24 | 0.00019 | 780000 |  |  |  |  |  | 
B2 |  |  |  | binds | binds | binds | no binding (tested: 2 µg/mL antibody) | binds | binds

Reference: article PMC11650997 (Journal of Virology, 2024)
